Data reported in patent US20030148956A1 (PROCTER AND GAMBLE, published 2003).
Residue numbers refer to the chain shown, from its start. Ends that are not written are not given here.

B1: SEQ ID NO 271 (peptide)
peptide: NDDPPISIDLPLYLLRNMIEMARIENEREQAGLNAKYLAEV-NH2
B2: SEQ ID NO 258 (peptide)
peptide: NDDPPISIDLPFQLLRNMIEMARIENEREQAGLNAKYLAEV-NH2
B3: SEQ ID NO 262 (peptide)
peptide: NDDPPISIDLPFHLLRNMIEMARIENEREQAGLNAKYLAEV-NH2
B4: SEQ ID NO 261 (peptide)
peptide: NDDPPISIDLPFYLLRNMIEMARIENEREQAGLNAKYLAEV-NH2
B5: SEQ ID NO 263 (peptide)
peptide: DNPSLSIDLPYYLLRTLLELARTQSQRERAEQNAIIFASV-NH2
B6: SEQ ID NO 270 (peptide)
peptide: NDDPPISIDLPLQLLRNMIEMARIENEREQAGLNAKYLAEV-NH2
B7: SEQ ID NO 272 (peptide)
peptide: ZGPPISIDLPFQLLRKVIEIEKQEKEKQQAANNAELLAEI
modifications: C-terminal amide
B8: SEQ ID NO 281 (peptide)
peptide: B7 peptide with F11I, Q12F, E35R, E39R
modifications: C-terminal amide
B9: SEQ ID NO 282 (peptide)
peptide: B7 peptide with F11I, Q12F, V17M, E35R, E39R
modifications: C-terminal amide
B10: SEQ ID NO 274 (peptide)
peptide: B7 peptide with E35K, E39K
modifications: C-terminal amide
B11: SEQ ID NO 273 (peptide)
peptide: B7 peptide with E35Q, E39H
modifications: C-terminal amide
B12: SEQ ID NO 276 (peptide)
peptide: B7 peptide with E35Q, E39Q
modifications: C-terminal amide
B13: SEQ ID NO 279 (peptide)
peptide: B7 peptide with E35R, E39R
modifications: C-terminal amide
B14: SEQ ID NO 275 (peptide)
peptide: B7 peptide with E35N, E39N
modifications: C-terminal amide
B15: SEQ ID NO 277 (peptide)
peptide: B7 peptide with E35H, E39H
modifications: C-terminal amide
B16: SEQ ID NO 280 (peptide)
peptide: B7 peptide with F11I, Q12F, E35L, E39T
modifications: C-terminal amide
B17: SEQ ID NO 265 (peptide)
peptide: NDDPPISIDLPQYLLRNMIEMARIENEREQAGLNAKYLAEV-NH2
B18: SEQ ID NO 269 (peptide)
peptide: NDDPPISIDLPLILLRNMIEMARIENEREQAGLNAKYLAEV-NH2
B19: SEQ ID NO 260 (peptide)
peptide: NDDPPISIDLPFLLLRNMIEMARIENEREQAGLNAKYLAEV-NH2
B20: SEQ ID NO 264 (peptide)
peptide: NDDPPISIDLPFFLLRNMIEMARIENEREQAGLNAKYLAEV-NH2
B21: SEQ ID NO 256 (peptide)
peptide: ZGPPISIDVPFQLLRKMIEIEKQEKEKQQAANNRLLLDTI
modifications: C-terminal amide
B22: SEQ ID NO 278 (peptide)
peptide: B7 peptide with E35R, A38D, E39T
modifications: C-terminal amide
B23: SEQ ID NO 283 (peptide)
peptide: B21 peptide with V9L, F11Y, M17V
modifications: C-terminal amide
B24: SEQ ID NO 268 (peptide)
peptide: NDDPPISIDLPLLLLRNMIEMARIENEREQAGLNAKYLAEV-NH2
B25: SEQ ID NO 257 (peptide)
peptide: NDDPPISIDLPLFLLRNMIEMARIENEREQAGLNAKYLAEV-NH2
B26: SEQ ID NO 266 (peptide)
peptide: NDDPPISIDLPTYLLRNMIEMARIENEREQAGLNAKYLAEV-NH2
B27: SEQ ID NO 267 (peptide)
peptide: NDDPPISIDLPYYLLRNMIEMARIENEREQAGLNAKYLAEV-NH2
B28: SEQ ID NO 259 (peptide)
peptide: NDDPPISIDLPLHLLRNMIEMARIENEREQAGLNAKYLAEV-NH2
B29: SEQ ID NO 21 (peptide)
peptide: ZGPPISIDLPFQLLRKMIEIEKQEKEKQQATTNARLLATV
modifications: C-terminal amide
B30: SEQ ID NO 23 (peptide)
peptide: B29 peptide with T39R
modifications: C-terminal amide
B31: SEQ ID NO 22 (peptide)
peptide: B29 peptide with A38D, T39R
modifications: C-terminal amide
B32: SEQ ID NO 210 (peptide)
peptide: B21 peptide with V9L, F11W
modifications: C-terminal amide
B33: SEQ ID NO 24 (peptide)
peptide: B21 peptide with V9L, F11I, Q12T
modifications: C-terminal amide
B34: SEQ ID NO 209 (peptide)
peptide: B21 peptide with V9L, F11W, Q12H
modifications: C-terminal amide
B35: SEQ ID NO 208 (peptide)
peptide: B21 peptide with V9L, F11Y, Q12H
modifications: C-terminal amide
B36: SEQ ID NO 207 (peptide)
peptide: B21 peptide with V9L, F11Q, Q12H
modifications: C-terminal amide
B37: SEQ ID NO 211 (peptide)
peptide: B21 peptide with V9L, F11A
modifications: C-terminal amide

What follows are binders tested against T1, corticotropin releasing factor 2 receptor (assay: cell-based or functional assay).
T1 sequence (Q13324 whole entry, species assumed, looked up): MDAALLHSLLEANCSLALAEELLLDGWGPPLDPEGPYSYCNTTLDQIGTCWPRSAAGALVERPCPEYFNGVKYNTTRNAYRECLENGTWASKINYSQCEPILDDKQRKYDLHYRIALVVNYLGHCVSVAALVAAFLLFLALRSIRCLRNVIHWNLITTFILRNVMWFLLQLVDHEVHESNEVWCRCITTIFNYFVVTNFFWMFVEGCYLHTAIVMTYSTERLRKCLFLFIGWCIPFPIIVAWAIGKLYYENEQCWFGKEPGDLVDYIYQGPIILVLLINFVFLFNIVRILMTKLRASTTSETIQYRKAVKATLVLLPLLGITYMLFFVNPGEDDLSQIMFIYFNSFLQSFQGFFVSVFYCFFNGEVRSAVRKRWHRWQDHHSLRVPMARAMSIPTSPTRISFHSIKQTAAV

Row | CRF2R EC50 | CRF2R Emax % | Binder
1 | 48.1 nM | 69% | B1
2 | 100 nM | 49.3% | B2
3 | 100 nM | 92.2% | B3
4 | 100 nM | 95.3% | B4
5 | 36.2 nM | 93% | B5
6 | 100 nM | 19.3% | B6
7 | 23.3 nM | 100% | B7
8 | 100 nM | 78.8% | B8
9 | 25.8 nM | 60.8% | B9
10 | 13.8 nM | 100% | B10
11 | 31.3 nM | 100% | B11
12 | 22.1 nM | 100% | B12
13 | 13.1 nM | 100% | B13
14 | 46.6 nM | 100% | B14
15 | 28.2 nM | 100% | B15
16 | 100 nM | 82.3% | B16
17 | 100 nM | 23.4% | B17
18 | 100 nM | 77.3% | B18
19 | 100 nM | 89.3% | B19
20 | 100 nM | 66.3% | B20
21 | 12.6 nM | 100% | B21
22 | 19.6 nM | 100% | B22
23 | 10.6 nM | 72% | B23
24 | 100 nM | 59% | B24
25 | 100 nM | 72.6% | B25
26 | 100 nM | 19.4% | B26
27 | 100 nM | 44.2% | B27
28 | 100 nM | 65% | B28

Each binder was assayed against T2, CRF2R (assay: cell-based or functional assay).
T2 sequence (Q13324 whole entry, species assumed, looked up): T1 sequence (Q13324 whole entry, species assumed, looked up)

Row | CRF2R EC50 | CRF2R Emax | Binder
29 | 8.46 nM | 96% | B29
30 | 10.2 nM | 100% | B30
31 | 8.33 nM | 100% | B31
32 | 10.2 nM | 97% | B32
33 | 43.1 nM | 100% | B33
34 | 7.4 nM | 93% | B34
35 | 5.6 nM | 88% | B35
36 | 61.4 nM | 96% | B36
37 | 59.5 nM | 100% | B37

The binders below were run against corticotropin releasing factor 1 receptor (assay: cell-based or functional assay).

Row | CRF1R EC50 | CRF1R Emax % | Binder
38 | 815 nM | 80.7% | B1
39 | 1000 nM | 23.6% | B2
40 | 408 nM | 100% | B3
41 | 274 nM | 100% | B4
42 | 802 nM | 72% | B5
43 | 1000 nM | 7.85% | B6
44 | 1000 nM | 51.1% | B7
45 | 1000 nM | 12.2% | B8
46 | 1000 nM | 21.8% | B9
47 | 508 nM | 80.9% | B10
48 | 1000 nM | 59.3% | B11
49 | 1000 nM | 75.7% | B12
50 | 1000 nM | 93% | B13
51 | 1000 nM | 38.3% | B14
52 | 1000 nM | 39.9% | B15
53 | 1000 nM | 11.8% | B16
54 | 1000 nM | 9.3% | B17
55 | 1000 nM | 44.3% | B18
56 | 834 nM | 89.7% | B19
57 | 704 nM | 100% | B20
58 | 254 nM | 100% | B21
59 | 1000 nM | 48.7% | B22
60 | 635 nM | 100% | B23
61 | 1000 nM | 14.2% | B24
62 | 744 nM | 83.5% | B25
63 | 1000 nM | 4.45% | B26
64 | 1000 nM | 22.8% | B27
65 | 820 nM | 83.6% | B28

What follows are binders tested against CRF1R (assay: cell-based or functional assay).

Row | CRF1R EC50 | CRF1R Emax | Binder
66 | 908 nM | 88% | B29
67 | 1000 nM | 82% | B30
68 | 1000 nM | 64% | B31
69 | 43.5 nM | 90% | B32
70 | > 1000 nM | 18% | B33
71 | 26.4 nM | 80% | B34
72 | 64.9 nM | 81% | B35
73 | 466 nM | 88% | B36
74 | 826 nM | 37% | B37
